One may read the Kd as a measure of binding affinity in units of concentration. A higher Kd goes with lower affinity.

Kd data for 2 molecules are collected here from publication PMC7055300 (2020).

In the experiment the target is T1, human Retinoblastoma-1 (RB) pocket domain (human, UniProt P06400 373-771).
T1 chain: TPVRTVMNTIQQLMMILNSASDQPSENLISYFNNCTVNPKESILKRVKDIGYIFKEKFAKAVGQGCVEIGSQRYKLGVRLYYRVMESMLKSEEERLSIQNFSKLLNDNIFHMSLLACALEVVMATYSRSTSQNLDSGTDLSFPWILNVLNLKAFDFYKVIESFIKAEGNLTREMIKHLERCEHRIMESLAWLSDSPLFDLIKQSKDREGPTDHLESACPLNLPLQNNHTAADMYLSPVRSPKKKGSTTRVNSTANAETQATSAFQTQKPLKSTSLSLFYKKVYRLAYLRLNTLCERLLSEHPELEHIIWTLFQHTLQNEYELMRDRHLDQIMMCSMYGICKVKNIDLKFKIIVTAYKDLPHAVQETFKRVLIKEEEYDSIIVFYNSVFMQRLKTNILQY
Nature of the experiment: SPR. (Surface plasmon resonance follows binding to a sensor surface in real time, without labels.)

In turn, YIEEVFTPLVLKCKELK [LXCXE peptide derived from TpGcpE (TpMuguga_02g00667)] displayed a Kd of 22.4 µM.

B1: full-length E2F1, purified, recombinant (natural protein)
chain: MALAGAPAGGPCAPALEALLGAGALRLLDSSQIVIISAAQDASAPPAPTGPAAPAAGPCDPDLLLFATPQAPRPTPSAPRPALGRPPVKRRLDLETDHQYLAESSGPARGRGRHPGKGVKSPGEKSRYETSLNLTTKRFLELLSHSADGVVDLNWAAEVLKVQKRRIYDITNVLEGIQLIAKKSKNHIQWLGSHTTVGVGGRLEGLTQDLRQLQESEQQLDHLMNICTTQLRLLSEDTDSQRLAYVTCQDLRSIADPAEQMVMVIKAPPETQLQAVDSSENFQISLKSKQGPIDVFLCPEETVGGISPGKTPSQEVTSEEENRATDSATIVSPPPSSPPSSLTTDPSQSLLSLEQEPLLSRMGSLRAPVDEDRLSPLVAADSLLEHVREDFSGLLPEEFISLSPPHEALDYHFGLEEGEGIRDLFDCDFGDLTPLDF
B1: the Kd is 0.0331 µM. This Kd is about 680-fold lower than that of the molecule before.
